{
  "source": "patent US20210106646A1",
  "about": "“Combination Of A Novel Topical Gel And Oral Supplements For Healing Diabetic Foot And Other Wounds” (Smart Products & Services Inc. (dba Aloevive), priority 2019, published 2021)",
  "origin": "cited, not measured here",
  "conditions": "topical use, per product website",
  "data": [
    {"substance": "Regranex Gel: Regranex (becaplermin) Gel is a recombinant human platelet-derived growth factor used to treat lower extremity diabetic ulcers", "values": [
      {"measurement": "rare but serious side effects", "result": "allergic reactions such as rash, itching, swelling (especially of the face/tongue/throat), dizziness, and trouble breathing"}
    ]}
  ]
}
